Test results: article PMC5012860

Biological target: T1, UHRF1 wild-type (human) (UniProt Q96T88)
T1 sequence: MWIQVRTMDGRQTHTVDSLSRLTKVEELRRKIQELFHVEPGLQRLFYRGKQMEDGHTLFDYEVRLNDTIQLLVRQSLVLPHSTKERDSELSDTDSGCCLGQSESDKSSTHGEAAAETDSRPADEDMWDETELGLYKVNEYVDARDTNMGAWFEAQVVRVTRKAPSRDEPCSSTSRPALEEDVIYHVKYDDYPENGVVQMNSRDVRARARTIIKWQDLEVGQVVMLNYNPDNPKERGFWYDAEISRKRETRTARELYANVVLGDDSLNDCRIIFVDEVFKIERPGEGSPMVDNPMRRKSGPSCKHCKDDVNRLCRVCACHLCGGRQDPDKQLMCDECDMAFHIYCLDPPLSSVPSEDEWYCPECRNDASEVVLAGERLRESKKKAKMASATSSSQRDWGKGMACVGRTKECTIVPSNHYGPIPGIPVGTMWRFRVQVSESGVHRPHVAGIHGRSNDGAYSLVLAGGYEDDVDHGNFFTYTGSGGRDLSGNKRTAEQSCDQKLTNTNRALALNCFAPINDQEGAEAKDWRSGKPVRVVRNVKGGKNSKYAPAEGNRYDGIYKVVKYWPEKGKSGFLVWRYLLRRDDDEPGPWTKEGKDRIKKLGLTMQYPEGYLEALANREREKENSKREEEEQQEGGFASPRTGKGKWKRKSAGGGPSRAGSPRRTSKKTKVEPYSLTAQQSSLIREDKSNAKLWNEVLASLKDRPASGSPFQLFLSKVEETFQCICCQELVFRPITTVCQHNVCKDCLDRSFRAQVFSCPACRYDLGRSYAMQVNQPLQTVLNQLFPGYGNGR
Experiment: fluorescence polarization
Conditions: 50 mM vs 150 mM NaCl; 5mC at position 6 of strand 2 (GTCAG5mCGCATGG); 25 mM HEPES pH 7.5, 0.05% NP-40, 100 mM NaCl (unless indicated), 10 nM FAM-DNA, 10 min, 25 C; scale: fold affinity difference between 50 and 150 mM NaCl

CCATGCGCTGAC (double strand) [HeDNA]
binding signal: 500
